Patent US20190218304A1 (INNATE PHARMA, published 2019)

Key:
[1] = target: T1, human CD39 expressed on cells (human, UniProt P49961 1-510); test: flow cytometry titration on CHO cells expressing human CD39, labeled secondary antibody [panel CHO-huCD39]
T1 construct: On CHO transfectants, HEK-293T transfectants (wild type), Ramos lymphoma cells or monocyte-derived dendritic cells, as named under assay; also called huCD39; CHO-huCD39
T1 sequence: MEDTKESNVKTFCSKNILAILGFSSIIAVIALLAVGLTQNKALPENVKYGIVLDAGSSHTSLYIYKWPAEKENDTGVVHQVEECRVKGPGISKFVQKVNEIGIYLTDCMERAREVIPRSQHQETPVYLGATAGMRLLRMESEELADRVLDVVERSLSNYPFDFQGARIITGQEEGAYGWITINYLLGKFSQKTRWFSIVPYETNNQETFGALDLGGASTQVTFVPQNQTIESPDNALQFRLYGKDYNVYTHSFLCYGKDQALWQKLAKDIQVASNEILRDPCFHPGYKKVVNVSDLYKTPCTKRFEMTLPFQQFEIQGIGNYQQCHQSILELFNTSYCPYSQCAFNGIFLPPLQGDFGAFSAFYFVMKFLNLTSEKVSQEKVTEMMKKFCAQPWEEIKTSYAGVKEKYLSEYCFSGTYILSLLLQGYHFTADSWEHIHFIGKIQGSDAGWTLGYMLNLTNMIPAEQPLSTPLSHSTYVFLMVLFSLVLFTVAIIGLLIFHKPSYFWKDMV
Protocol: Cells were incubated with various concentration of unlabeled anti-CD39 antibody from 30 μg/ml to 5×10⁻⁴ μg/ml, for 30 minutes at 4° C. After washes, cells were incubated with Goat anti-mouse H+L labeled secondary antibody for 30 min at 4° C.

[2] = target: T2, recombinant human CD39-M2 extracellular domain protein (human, UniProt P49961 38-478); test: cell-based or functional assay
T2 sequence: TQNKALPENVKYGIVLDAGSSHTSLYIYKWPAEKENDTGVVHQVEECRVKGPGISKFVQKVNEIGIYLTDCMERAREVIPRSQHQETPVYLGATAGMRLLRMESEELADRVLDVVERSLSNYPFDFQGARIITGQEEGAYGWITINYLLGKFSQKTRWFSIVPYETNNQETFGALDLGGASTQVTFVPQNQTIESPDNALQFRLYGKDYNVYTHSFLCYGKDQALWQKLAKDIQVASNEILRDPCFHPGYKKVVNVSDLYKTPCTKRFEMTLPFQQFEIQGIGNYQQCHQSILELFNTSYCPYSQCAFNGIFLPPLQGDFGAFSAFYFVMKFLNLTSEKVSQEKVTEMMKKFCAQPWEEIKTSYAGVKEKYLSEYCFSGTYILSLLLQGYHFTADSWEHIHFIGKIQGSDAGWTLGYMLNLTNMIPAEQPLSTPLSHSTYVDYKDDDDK

B1: antibody I-394 (antibody, human IgG1, kappa, V domains shown)
VH: EVQLQQSGPELVKPGASVKMSCKASGYTFTDYNMHWVKQSHGRTLEWIGYIVPLNGGSTFNQKFKGRATLTVNTSSRTAYMELRSLTSEDSAAYYCARGGTRFAYWGQGTLVTVSA
VL: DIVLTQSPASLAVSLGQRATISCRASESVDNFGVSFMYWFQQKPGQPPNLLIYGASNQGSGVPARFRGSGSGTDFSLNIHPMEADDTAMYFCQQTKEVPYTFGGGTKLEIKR
notes: The hybridoma-derived mouse form was used in early screening
In the case of B1, the “EC50 (read off the curve)” value [1] is reported as ~0.2 µg/mL and the “IC50, inhibition of the ATPase activity of soluble CD39 protein” value [2] is reported as 0.003 µg/mL.
